Test results from patent publication US20100047245A1 (AbbVie / Abbott, published 2010).

Molecular target: recombinant purified cyno IL-12 p70 (cynomolgus monkey)
Assay: cell-based or functional assay

Sequence of recombinant purified cyno IL-12 p70 (cynomolgus monkey) (P48095 23-328, chain 1 of 2): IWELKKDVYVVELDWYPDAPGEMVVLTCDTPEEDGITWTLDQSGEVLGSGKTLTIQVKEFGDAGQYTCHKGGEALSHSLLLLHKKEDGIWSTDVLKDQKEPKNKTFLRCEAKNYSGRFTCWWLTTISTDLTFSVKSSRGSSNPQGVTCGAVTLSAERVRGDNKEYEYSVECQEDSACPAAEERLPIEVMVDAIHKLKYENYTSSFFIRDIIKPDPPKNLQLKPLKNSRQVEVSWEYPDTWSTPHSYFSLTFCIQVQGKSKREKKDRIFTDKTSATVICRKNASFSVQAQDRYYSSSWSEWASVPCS
Sequence of recombinant purified cyno IL-12 p70 (cynomolgus monkey) (P48091 23-219, chain 2 of 2, further chain): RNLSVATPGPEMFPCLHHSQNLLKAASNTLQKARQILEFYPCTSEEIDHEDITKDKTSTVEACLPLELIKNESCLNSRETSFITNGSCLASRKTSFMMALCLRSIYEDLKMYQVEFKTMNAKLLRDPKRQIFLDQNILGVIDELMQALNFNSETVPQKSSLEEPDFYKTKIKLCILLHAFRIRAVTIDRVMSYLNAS

Binder | Average IC50 (nM) Cyno IL-12; PHA blast IFN-gamma induction assay [nM]
1D4-Chim (antibody, human IgG1, V domains shown) VH: QVTLKESGPGILQPSQTLSLTCSFSGFSLRKSVMGVSWIRQPSGKGLEWLAHIYWDDDKYYNPSLKSRLTISKDPSRNQVFLKITSVDTADAATYYCTRRGIRSAMDYWGQGTSVTVSS VL: SVVMTQTPKFLLVSAGDRVTITCKASQSVSNDVAWYQQKPGQSPKLLIYYASNRYTGVPDRFTGSGYGTDFTFIISTVRAEDLAVYFCQQDYNSPWTFGGGTKLEIKR | 0.07
1A6-Chim (antibody, human IgG1, V domains shown) VH: QVTLKESGPGILKPSQTLSLTCSFSGFSLSTSGMGVSWIRQPSGKGLEWLAHIWWDGDNYYNPSLKSQLTISKDTSRNQVFLRIATVDTADTATYYCARRTRVNYAMDYWGQGTSVTVSS VL: SVVMTQTPKFLLVSAGDRVTITCKASQSVSNDVAWFQQKPGQSPKLLIYYASNRYTGVPDRFTGSGYGTDFTFTISTVQAEDLAVYFCQQDYNSPWTFGGGTKLEIKR | 0.02
3G7-Chim (antibody, human IgG1, V domains shown) VH: QVQLQQSGAELMKPGASVKISCKATGYTFNDYWIEWVKQRPGHGLEWIGGFSHGSGSTNYNEKFKGKATFTADSSSNTAYMQLSSLTSEDSAVYYCARRRFRGMDYWGQGTSVTVSS VL: SIVMTQTPKFLLVSAGDRVTITCKASQSVSNDVAWYQQKPGQSPKLLIYYASNRYTGVPDRFTGSGYGTDFTFTITTVQAEDLAVYFCQQDYSSPWSFGGGTKLEIKR | 0.32
8E1-Chim (antibody, human IgG1, V domains shown) VH: EVKLVESGGGLVQPGGSRKLSCAASGFTFSDYGMVWVRQAPGKGLEWVASISSGSSNIYYADTVKGRFTISRDDPNNTLFLQMRSLRSEDTAMYYCARNPYWGQGTTLTVSS VL: DIVMTQSQKFMSTSVGDRVSVTCKASQNVGTNVAWYQQKPGQSPKGLIYSASHRYSGVPDRFAGSGSGTDFTLTISNVQSEDLAEYFCQQYNSYPLTFGGGTKLELKR | 0.15
